Measurements as given in doi:10.1101/2022.04.11.487922.
Read-outs that look alike come from different tables or passages of the source.

Experiments:
[1] = target: T1, p50 (in p50/RelA);RelA FL (in p50/RelAFL) (Mus musculus;Mus musculus, UniProt P25799;Q04207 39-350;19-549, |); experiment: EMSA
[2] = target: T2, p50 (in p50/RelA);RelA RHD (in p50/RelARHD) (Mus musculus;Mus musculus, UniProt P25799;Q04207 39-350;19-321, |); experiment: EMSA
[3] = target: T1, p50 (in p50/RelA);RelA FL (in …); experiment: fluorescence anisotropy
[4] = target: T2, p50 (in p50/RelA);RelA RHD (in …); experiment: fluorescence anisotropy
[5] = target: T1, p50 (in p50/RelA);RelA FL (in …); experiment: EMSA; remark: listed apart in the source
[6] = target: T2, p50 (in p50/RelA);RelA RHD (in …); experiment: EMSA; remark: listed apart in the source
[7] = target: T1, p50 (in p50/RelA);RelA FL (in …); experiment: EMSA; remark: listed apart in the source
[8] = target: T2, p50 (in p50/RelA);RelA RHD (in …); experiment: EMSA; remark: listed apart in the source
[9] = target: T2, p50 (in p50/RelA);RelA RHD (in …); experiment: EMSA; remark: listed apart in the source
[10] = target: T1, p50 (in p50/RelA);RelA FL (in …); experiment: EMSA; remark: listed apart in the source
[11] = target: T1, p50 (in p50/RelA);RelA FL (in …); experiment: EMSA; remark: listed apart in the source
[12] = target: T2, p50 (in p50/RelA);RelA RHD (in …); experiment: EMSA; remark: listed apart in the source
[13] = target: T1, p50 (in p50/RelA);RelA FL (in …); experiment: fluorescence anisotropy; remark: listed apart in the source
[14] = target: T2, p50 (in p50/RelA);RelA RHD (in …); experiment: fluorescence anisotropy; remark: listed apart in the source
[15] = target: T1, p50 (in p50/RelA);RelA FL (in …); experiment: fluorescence anisotropy; remark: listed apart in the source
[16] = target: T2, p50 (in p50/RelA);RelA RHD (in …); experiment: fluorescence anisotropy; remark: listed apart in the source
[17] = target: T1, p50 (in p50/RelA);RelA FL (in …); experiment: fluorescence anisotropy; remark: listed apart in the source
[18] = target: T2, p50 (in p50/RelA);RelA RHD (in …); experiment: fluorescence anisotropy; remark: listed apart in the source

T2 sequence (P25799 39-350, chain 1 of 2): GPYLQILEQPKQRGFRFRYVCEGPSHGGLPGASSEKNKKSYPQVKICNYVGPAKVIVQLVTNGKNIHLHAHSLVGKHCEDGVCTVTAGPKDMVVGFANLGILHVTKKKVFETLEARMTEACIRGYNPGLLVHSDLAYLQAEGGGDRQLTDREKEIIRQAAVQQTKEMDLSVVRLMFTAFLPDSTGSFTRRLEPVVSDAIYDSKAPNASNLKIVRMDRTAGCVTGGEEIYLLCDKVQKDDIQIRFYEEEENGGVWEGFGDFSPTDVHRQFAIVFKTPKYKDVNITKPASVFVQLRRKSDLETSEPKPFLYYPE
T2 sequence (Q04207 19-321, chain 2 of 2): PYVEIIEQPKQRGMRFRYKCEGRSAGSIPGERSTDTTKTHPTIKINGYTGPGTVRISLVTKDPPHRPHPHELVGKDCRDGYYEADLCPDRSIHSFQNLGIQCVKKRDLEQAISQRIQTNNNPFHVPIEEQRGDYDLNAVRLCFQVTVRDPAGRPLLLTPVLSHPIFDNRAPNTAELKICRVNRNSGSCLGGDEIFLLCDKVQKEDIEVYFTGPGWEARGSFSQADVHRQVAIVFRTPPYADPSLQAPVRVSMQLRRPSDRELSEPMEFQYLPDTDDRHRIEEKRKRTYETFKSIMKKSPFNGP
T1 sequence (P25799 39-350, chain 1 of 2): as the sequence (P25799 39-350, chain 1 of 2) above
T1 sequence (Q04207 19-549, chain 2 of 2): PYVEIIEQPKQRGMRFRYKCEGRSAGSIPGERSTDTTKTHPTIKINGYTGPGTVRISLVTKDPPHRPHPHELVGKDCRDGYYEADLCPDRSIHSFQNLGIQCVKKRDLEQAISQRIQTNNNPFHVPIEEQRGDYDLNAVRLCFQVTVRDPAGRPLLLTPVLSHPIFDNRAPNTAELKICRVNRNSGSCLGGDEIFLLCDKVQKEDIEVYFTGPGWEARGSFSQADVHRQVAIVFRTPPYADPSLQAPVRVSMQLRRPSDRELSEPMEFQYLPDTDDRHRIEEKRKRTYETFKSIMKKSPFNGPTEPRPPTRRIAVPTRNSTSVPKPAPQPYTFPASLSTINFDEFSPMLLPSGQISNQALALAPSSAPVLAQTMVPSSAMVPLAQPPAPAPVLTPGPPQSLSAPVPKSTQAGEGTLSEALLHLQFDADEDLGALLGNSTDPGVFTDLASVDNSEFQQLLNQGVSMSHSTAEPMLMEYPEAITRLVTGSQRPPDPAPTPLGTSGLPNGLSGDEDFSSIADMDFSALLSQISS

B1: HIV LTR, site 2 scrambled (dsDNA)
DNA 1: AAGGGACTTTCCGCTGGTCGACTGTCAGGGAGG
DNA 2: CCTCCCTGACAGTCGACCAGCGGAAAGTCCCTT
[1]
  binding result: binds
[2]
  binding result: binds

B2: HIV LTR tandem dsDNA (anisotropy) (dsDNA)
DNA 1: CAAGGGACTTTCCGCTGGGGACTTTCCAGG
DNA 2: CCTGGAAAGTCCCCAGCGGAAAGTCCCTTG
modifications: 5' 5AmMC6
[3]
  Kd: 1.3 ± 0.4 nM
[4]
  Kd: 1.7 ± 0.4 nM

B3: HIV LTR tandem kB 33 bp (EMSA) (dsDNA)
DNA 1: AAGGGACTTTCCGCTGGGGACTTTCCAGGGAGG
DNA 2: CCTCCCTGGAAAGTCCCCAGCGGAAAGTCCCTT
[5]
  binding result: binds
[6]
  binding result: binds

B4: NFKBIA, site 2 scrambled (dsDNA)
DNA 1: CTGACTGGCTTGGAAATTCCCCGAGCCTGACCCCGCCCCAAGCACTGACACAGCCAGCG
DNA 2: CGCTGGCTGTGTCAGTGCTTGGGGCGGGGTCAGGCTCGGGGAATTTCCAAGCCAGTCAG
[7]
  binding result: binds
[8]
  binding result: binds

B5: NFKBIA tandem kB 59 bp (EMSA) (dsDNA)
DNA 1: CTGACTGGCTTGGAAATTCCCCGAGCCTGACCCCGCCCCAGAGAAATCCCCAGCCAGCG
DNA 2: CGCTGGCTGGGGATTTCTCTGGGGCGGGGTCAGGCTCGGGGAATTTCCAAGCCAGTCAG
[9]
  binding result: binds
[10]
  binding result: binds

B6: NFKBIA, site 1 scrambled (dsDNA)
DNA 1: CTGACTGGCTTAGTCACGTCACGAGCCTGACCCCGCCCCAGAGAAATCCCCAGCCAGCG
DNA 2: CGCTGGCTGGGGATTTCTCTGGGGCGGGGTCAGGCTCGTGACGTGACTAAGCCAGTCAG
[7]
  binding result: binds
[8]
  binding result: binds

B7: HIV LTR, site 1 scrambled (dsDNA)
DNA 1: AAGTCGACTGTCGCTGGGGACTTTCCAGGGAGG
DNA 2: CCTCCCTGGAAAGTCCCCAGCGACAGTCGACTT
[11]
  binding result: binds
[12]
  binding result: binds

B8: NFKBIA tandem dsDNA (anisotropy), forward label (dsDNA)
DNA 1: CTTGGAAATTCCCCGAGCCTGACCCCGCCCCAGAGAAATCCCCAG
DNA 2: CTGGGGATTTCTCTGGGGCGGGGTCAGGCTCGGGGAATTTCCAAG
modifications: 5' 5AmMC6
[13]
  Kd: 1.5 ± 0.7 nM
[14]
  Kd: 1.7 ± 0.5 nM

B9: NFKBIA tandem dsDNA (anisotropy), reverse label (dsDNA)
DNA 1: CTTGGAAATTCCCCGAGCCTGACCCCGCCCCAGAGAAATCCCCAG
DNA 2: CTGGGGATTTCTCTGGGGCGGGGTCAGGCTCGGGGAATTTCCAAG
modifications: 5' 5AmMC6
[15]
  Kd: 5.1 ± 0.4 nM
[16]
  Kd: 10 ± 2 nM

## GTAGACGTGCTCCCCCAGCACGTCTAC (structured_DNA, 5' 5AmMC6) [Random hairpin]
[17]
  Kd: 130 ± 40 nM
[18]
  Kd: 1500 ± 100 nM
